Biological target: E546N mutant human inducible NOS oxygenase/FMN (oxyFMN) construct (human) (UniProt P35228)
Assay: cross-linking; DSBU 250 uM with 5 uM iNOS oxyFMN (co-purified with CaM), 20 mM HEPES, 100 mM NaCl, 1 mM CaCl2, pH 7.5, 30 min, room temperature; SDS-PAGE, dimeric band digested in gel; LC-MS/MS on timsTOF (DDA-PASEF, then PRM-PASEF for quantitation), lysine-lysine cross-links only

UniProt P35228, sequence (P35228 71-723 E546N): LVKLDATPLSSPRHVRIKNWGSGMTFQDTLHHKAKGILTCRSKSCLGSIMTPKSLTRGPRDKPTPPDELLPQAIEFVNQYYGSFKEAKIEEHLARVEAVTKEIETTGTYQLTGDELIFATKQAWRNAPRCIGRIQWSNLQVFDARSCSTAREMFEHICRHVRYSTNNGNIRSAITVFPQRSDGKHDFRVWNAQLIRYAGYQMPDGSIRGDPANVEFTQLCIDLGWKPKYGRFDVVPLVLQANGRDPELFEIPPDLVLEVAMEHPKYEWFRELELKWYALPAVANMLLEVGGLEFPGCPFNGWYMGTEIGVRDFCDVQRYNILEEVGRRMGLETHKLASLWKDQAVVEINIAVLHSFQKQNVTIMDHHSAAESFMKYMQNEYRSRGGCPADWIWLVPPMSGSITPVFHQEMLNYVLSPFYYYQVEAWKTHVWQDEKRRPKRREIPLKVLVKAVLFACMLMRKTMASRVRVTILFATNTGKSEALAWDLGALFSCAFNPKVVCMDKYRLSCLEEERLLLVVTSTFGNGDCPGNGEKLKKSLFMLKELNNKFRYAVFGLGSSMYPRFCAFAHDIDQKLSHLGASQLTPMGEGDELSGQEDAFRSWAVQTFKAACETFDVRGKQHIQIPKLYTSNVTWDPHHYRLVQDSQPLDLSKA

calmodulin (from UniProt P0DP23 1-149) (natural protein)
log2 fold-change (E546N/wt) of the abundance of cross-link 75–516 CaM-helix (intra) (log2(E546N/wt)): -1.04

Source: PMC12597282
